From US6875851

Legend:
[1] = target: DPP IV from P. gingivalis (Porphyromonas gingivalis); assay: cell-based or functional assay
[2] = system: Peptide 23

With Val-Pro (peptide) as the substance, how does the Residual activity of DPP IV, % (inhibitor at 10 mM) [1] read?
Its Residual activity of DPP IV, % (inhibitor at 10 mM) is 0%.

With Ala-Pro (peptide) as the substance, how does the Residual activity of DPP IV, % (inhibitor at 10 mM) [1] read?
The Residual activity of DPP IV, % (inhibitor at 10 mM) was 30%.

Which Residual activity of DPP IV, % (inhibitor at 10 mM) [1] does the source give for Ala-Gly-Pro (peptide) here?
Its Residual activity of DPP IV, % (inhibitor at 10 mM) is 1%.

With DPP IV from P. gingivalis as the substance, how does the Cleavage site [2] read?
The Cleavage site was “H-Ser-Pro-↑-Tyr-Ser-Ser-Asp-Thr-Thr”.
